The values that follow come from publication PMC3241668.

The target of the experiment is Daedalus-expressed CARMA-CARD (N-terminal CARD domain of human CARMA1, Asp2-Thr104) (human). Nature of the experiment: SEC.

By stoichiometry N is commonly meant a count of units in the complex or per binding partner. For the substance “Daedalus-expressed CARMA-CARD (N-terminal CARD domain of human CARMA1, Asp2-Thr104) (domain or fragment)”, the stoichiometry N turned out to be 2.
